Drawing on patent publication US20240279321A1 (THERINI BIO, published 2024), this text covers binding result, Kd and EC50 for 20 molecules.

For assay [1], the target named is T1, Human fibrin γ377-395 (Human P2 peptide) (human).
T1 construct: In the crystal models, residues 410-421 of chain A are ordered; also called fibrin P2 peptide; fibrin P2 gamma peptide
T1 peptide: Biotin-YSMKKTTMKIIPFNRLTIG
Kind of assay: BLI (ForteBio Octet): N-term biotinylated fibrin P2G peptide on SA tip, IgG in solution 100 nM (avid).

The target of assay [2] is T1, Human fibrin γ377-395 (Human P2 peptide). Kind of assay: BLI (Octet): N-term biotinylated P2G peptide on SA sensor, 100nM Fab in solution.
Assay [3] has the same target. Description: BLI (ForteBio Octet): N-term biotinylated fibrin P2G peptide on SA tip, IgG in solution 100 nM (avid) [Cont.].
Assay [4] shares this target. Description: BLI (Octet RED384), Fab on P2 peptide; on-rate phase 0-300 s, off-rate phase 300-600 s. (BLI is a label-free optical method that tracks binding on a fibre tip over time.)
Assay [5] shares this target. Description: BLI (Octet): N-term biotinylated P2G peptide on SA sensor, 100nM Fab in solution; the same panel stands twice in the middle row.
For assay [6] the target is unchanged. Kind of assay: BLI (ForteBio Octet): N-term biotinylated fibrin P2G peptide on SA tip, Fab in solution 100 nM (monovalent).
Assay [7] deals with T2, NP2 (Rabbit) (not fully specified (N-terminus)).
T2 construct: 'N-P2' elsewhere in the drawings stands for the N-term biotinylated P2 peptide; also called Rabbit P2 peptide; NP2 Fab (Rabbit) in the legend box of panel A
T2 peptide: YSMKKTTMKIIPLNRLSIG
Kind of assay: ELISA of ADI-60143 Fab on NP2 peptide (rabbit), RFU readout; drawn table, column Rabbit. (In general: ELISA stands for enzyme-linked immunosorbent assay.)

Assay [8] has as its target T3, Rat P2 peptide (rat).
T3 construct: also called Mouse/Rat P2 peptide
T3 peptide: YSMKETTMKIIPFNRLSIG
Kind of assay: ELISA of ADI-60143 Fab on NP2 peptide (rat), RFU readout; drawn table, column Rat.

Assay [9] has as its target T1, Human fibrin γ377-395 (Human P2 peptide). Description: ELISA of ADI-60143 Fab on NP2 peptide (human), RFU readout; drawn table, column Human.
Assay [10] has the same target. Description: ELISA (N-P2 ELISA), RFU readout.
Assay [11] has as its target T2, NP2 (Rabbit). Kind of assay: ELISA of ADI-60143 IgG on NP2 peptide (rabbit), RFU readout; drawn table, column Rabbit.
In assay [12] the target is T4, Rat P2 peptide extended (rat).
T4 construct: also called rat extended P2 peptide
T4 peptide: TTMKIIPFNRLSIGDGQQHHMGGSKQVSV
Description: ELISA of ADI-60143 IgG on Ext NP2 peptide (rat), RFU readout; drawn table, column Rat; the curve has no upper plateau at 500 nM.

The target in assay [13] is T3, Rat P2 peptide. Description: ELISA of ADI-60143 IgG on NP2 peptide (rat), RFU readout; drawn table, column Rat.
In assay [14] the target is T5, Ext NP2 (Rabbit).
T5 construct: also called Rabbit P2 peptide extended
T5 peptide: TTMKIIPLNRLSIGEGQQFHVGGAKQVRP
Description: ELISA of ADI-60143 IgG on Ext NP2 peptide (rabbit), RFU readout; drawn table, column Rabbit.

The target of assay [15] is T1, Human fibrin γ377-395 (Human P2 peptide). Description: ELISA of ADI-60143 IgG on NP2 peptide (human), RFU readout; drawn table, column Human.
In assay [16] the target is T6, Human P2 peptide extended (human).
T6 construct: also called human extended P2 peptide
T6 peptide: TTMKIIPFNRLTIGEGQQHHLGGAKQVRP
Kind of assay: ELISA of ADI-60143 IgG on Ext NP2 peptide (human), RFU readout; drawn table, column Human.

Assay [17] concerns the target T1, Human fibrin γ377-395 (Human P2 peptide). Description: BLI (ForteBio Octet): N-term biotinylated fibrin P2G peptide on SA tip, Fab in solution 100 nM (monovalent).
Assay [18] shares this target. Description: BLI (ForteBio Octet): N-term biotinylated fibrin P2G peptide on SA tip, Fab in solution 100 nM (monovalent) [Cont.].
Assay [19] shares this target. Description: ELISA (N-P2 ELISA), RFU readout; C is the duplicate of clone 61278.
Assay [20] shares this target. Kind of assay: BLI (ForteBio Octet): N-term biotinylated fibrin P2G peptide on SA tip, IgG in solution 100 nM (avid).

Changes are numbered by the printed parent chain. Where no end group is shown, it is not given here. The star is where a group is joined. Biotin = O=C1N[C@H]2[C@H](CS[C@H]2CCCCC(=O)*)N1

B1: 60140 (IgG) (antibody, V domains shown)
VH: QVQLVQSGAEVKKPGASVKVSCKASGYTFTSVWIHWVRQAPGQGLEWIGLIDPSDSYTNYNQKFRGRATLTVDTSTSTAYMELSSLRSEDTAVYYCASSRPTGGWGQGTTVTVSS
VL: DIVMTQSPLSLPVTPGEPASISCRSSKSLLHSSGITYLSWYLQKPGQSPQLLIYQMSNLASGVPDRFSGSGSGTDFTLKISRVEAEDVGVYYCAQNLELPLTFGGGTKVEIKR
For the molecule B1, the binding result in [1] is reported as “binds”.

B2: 56666 (parent) (Fab) (Fab, V domains shown)
VH: B1 VH with V32Y, I48M, A68V, L70M, R100D
VL: B1 VL
notes: also called ADI-56666; clone 56666 Fab
What is called Kd is the free concentration of one partner at which half of the binding sites on the other are occupied at equilibrium, for simple one-to-one binding. Higher therefore signals a looser complex. In assay [2], B2 showed a dissociation constant Kd of 1300 nM.

B3: 61273 (IgG) (antibody, V domains shown)
VH: B1 VH with V32T, I48M, A68V, L70M, R100K
VL: B1 VL with L38I
notes: also called ADI-61273; clone 61273 IgG
On to B3, for which, in assay [3], the binding result is listed as “binds”.

B4: Fab of antibody clone 61278 (ADI-61278 Fab) (Fab, V domains shown, not shown: a dimerising Fc or GST)
VH: B1 VH with V32Y, I48M, A68V, L70M, R100D, P101A
VL: B1 VL with N96A
notes: The crystal model holds chain H residues 1-126 and 133-214 and chain L residues 1-213; also called Fab ADI61278
For B4, the dissociation constant (Kd) in assay [4] was 104 nM; in [5], 38 nM.

B5: ADI-61283 (Fab) (Fab, V domains shown)
VH: B1 VH with V32A, I48M, A68V, L70M, R100D, T102Y
VL: B1 VL with L59K, N96S
B5: the binding result in assay [6] was “binds”.

B6: 61255 (IgG) (antibody, V domains shown)
VH: B1 VH with V32Y, R100D, P101A
VL: B1 VL with I35H, S48P, N96A
notes: also called clone 61255 IgG
On to B6, for which the binding result in assay [3] was “binds”.

B7: Fab of antibody clone 60143 (ADI-60143 Fab) (Fab, V domains shown)
VH: B1 VH with V32T, R100K
VL: B1 VL
notes: The crystal model holds chain H residues 1-127 and 134-214 and chain L residues 1-213; not shown: The papain cleavage limit is not stat
The EC50 is the midpoint of the concentration-response curve. For B7, the results for the EC50 in [7], in [8] and in [9] were 0.67 nM, 1.78 nM and 0.34 nM, respectively. The dissociation constant Kd in [4] stood at 70 nM; in assay [5], 23 nM.

B8: antibody clone 60143 (full length ADI-60143 IgG) (antibody, V domains shown)
VH: B1 VH with V32T, R100K
VL: B1 VL
On to B8, for which the EC50 was determined as 0.08 nM in assay [10]; 0.082 nM in [11]; 139 nM in assay [12]; 0.094 nM in assay [13]; 5.97 nM in assay [14]; 0.11 nM in assay [15]. Further, the EC50 in assay [16] came to 7.25 nM.

B9: 60140 (Fab) (Fab, V domains shown)
VH: B1 VH
VL: B1 VL
For the molecule B9, the binding result in assay [17] was “binds”.

B10: 61285 (Fab) (Fab, V domains shown)
VH: B1 VH with V32S, I48M, A68V, L70M, R100D, T102H
VL: B1 VL with N96S
As for B10, the binding result in assay [17] is recorded as “binds”.

B11: 61273 (Fab) (Fab, V domains shown)
VH: B1 VH with V32T, I48M, A68V, L70M, R100K
VL: B1 VL with L38I
notes: also called ADI-61273; clone 61273 Fab
Take B11: in assay [18], the binding result is “binds”.

B12: antibody clone 61278 (ADI-61278 IgG) (antibody, V domains shown)
VH: B1 VH with V32Y, I48M, A68V, L70M, R100D, P101A
VL: B1 VL with N96A
With B12, the EC50 was found to be 0.13 nM in assay [10] and 0.11 nM in assay [19].

B13: 61255 (Fab) (Fab, V domains shown)
VH: B1 VH with V32Y, R100D, P101A
VL: B1 VL with I35H, S48P, N96A
notes: also called clone 61255 Fab
For the molecule B13, the binding result in assay [18] is reported as “binds”.

B14: 61275 (Fab) (Fab, V domains shown)
VH: B1 VH with V32S, I48M, A68V, L70M, R100A
VL: B1 VL with N96A
For B14, the binding result in assay [17] is recorded as “binds”.

B15: ADI-61283 (IgG) (antibody, V domains shown)
VH: B1 VH with V32A, I48M, A68V, L70M, R100D, T102Y
VL: B1 VL with L59K, N96S
On to B15, for which the binding result in [20] is recorded as “binds”.

B16: 60183 (Fab) (Fab, V domains shown)
VH: B1 VH with V32T, I48M, A68V, L70M, R100K
VL: B1 VL
notes: also called ADI-60183; clone 60183 Fab
Turning to B16, in assay [18], the binding result is recorded as “binds”.

B17: 61275 (IgG) (antibody, V domains shown)
VH: B1 VH with V32S, I48M, A68V, L70M, R100A
VL: B1 VL with N96A
As to B17, the binding result in [1] is on record as “binds”.

B18: 61285 (IgG) (antibody, V domains shown)
VH: B1 VH with V32S, I48M, A68V, L70M, R100D, T102H
VL: B1 VL with N96S
On to B18, for which, in [1], the binding result is given as “binds”.

B19: 56657 (parent) (Fab) (Fab, V domains shown)
VH: B1 VH with V32Y, R100D
VL: B1 VL
notes: also called ADI-56657; clone 56657 Fab
In [2], B19 registered a Kd of 264 nM.

B20: 60183 (IgG) (antibody, V domains shown)
VH: B1 VH with V32T, I48M, A68V, L70M, R100K
VL: B1 VL
notes: also called ADI-60183; clone 60183 IgG
Take B20: the binding result in assay [3] is reported as “binds”.
